Measured values reported in US20220119534A1 (DRAGONFLY THERAPEUTICS, published 2022).
Substitutions are numbered along the chain they refer to. Names may count otherwise. “And” between values parts separate entries of the source, which are not always exact repeats. Equal values may be shown once. Values belong to the binder of their own block, whether it stands above or below them.

Experiments:
mFc-hNKG2D [1] = target: T1, mFc-hNKG2D (human, UniProt P26718 73-216); assay: SPR Biacore 8K 37 C; mFc-hNKG2D captured on anti-mFc chip, TriNKET as analyte; 1:1 kinetic fit; average of 4
T1 construct: extracellular domain; Made in house (Dragonfly Tx); the order of tag and ECD follows the name mFc-hNKG2D; also called mFc-tagged human NKG2D; not shown: mouse Fc tag
T1 sequence (looked up): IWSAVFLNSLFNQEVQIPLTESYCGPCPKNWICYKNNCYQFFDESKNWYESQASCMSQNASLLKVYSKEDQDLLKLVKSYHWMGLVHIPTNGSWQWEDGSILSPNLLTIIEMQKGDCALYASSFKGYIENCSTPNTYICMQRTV

mFc-hNKG2D [2] = target: T1, mFc-hNKG2D; assay: SPR Biacore 8K 37 C; mFc-hNKG2D captured on anti-mFc chip, TriNKET as analyte; steady state affinity fit
Human CLEC12A-His [3] = target: T2, Human CLEC12A-His (human, UniProt Q5QGZ9 65-265); assay: cell-based or functional assay
T2 sequence: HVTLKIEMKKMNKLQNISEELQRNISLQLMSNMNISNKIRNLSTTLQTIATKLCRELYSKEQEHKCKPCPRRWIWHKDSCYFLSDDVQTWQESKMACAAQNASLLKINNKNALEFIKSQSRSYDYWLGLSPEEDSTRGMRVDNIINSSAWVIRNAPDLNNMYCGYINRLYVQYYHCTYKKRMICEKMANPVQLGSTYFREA

[4] = target: T3, Human CD16a V158 (FcγRIIIa V158) (human, UniProt P08637 17-208, biotinylated); assay: SPR; after pH 5.0, 40C, 2 wks
T3 construct: Bought recombinant receptor; also called hCD16aV; hFcγRIIIa V158
T3 sequence (P08637 17-208 F176V limits assumed): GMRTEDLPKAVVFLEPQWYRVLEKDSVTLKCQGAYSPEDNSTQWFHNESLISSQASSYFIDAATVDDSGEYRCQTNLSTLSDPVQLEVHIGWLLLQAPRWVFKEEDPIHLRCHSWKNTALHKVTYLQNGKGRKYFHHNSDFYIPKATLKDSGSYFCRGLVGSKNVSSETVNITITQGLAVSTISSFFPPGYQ

[5] = target: T4, Human CLEC12A-His (recombinant, K244 WT) (human, UniProt Q5QGZ9 65-265); assay: SPR, two-state fit; control sample
T4 construct: Made in house (Dragonfly Tx); also called hCLEC12A; hCLEC12A-His; not shown: His tag
T4 sequence: T2 sequence

Human CD64 (FcγRI) = target: T5, Human CD64 (FcγRI) (human, UniProt P12314 16-288, biotinylated); assay: SPR 25C, biotinylated hCD64 captured on CAP chip
T5 construct: Bought recombinant receptor; also called hFcγRI; Human FcγRI
T5 sequence (P12314 16-288 limits assumed): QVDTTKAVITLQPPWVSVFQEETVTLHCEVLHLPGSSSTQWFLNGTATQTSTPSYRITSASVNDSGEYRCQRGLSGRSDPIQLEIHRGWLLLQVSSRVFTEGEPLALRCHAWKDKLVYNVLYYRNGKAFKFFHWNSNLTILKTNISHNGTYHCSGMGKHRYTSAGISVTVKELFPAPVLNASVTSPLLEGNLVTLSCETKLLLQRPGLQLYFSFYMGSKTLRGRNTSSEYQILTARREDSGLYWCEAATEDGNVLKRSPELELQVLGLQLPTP

[6] = target: T6, Human CLEC12A expressed on cells (Ba/F3-hCLEC12A, PL21, HL60) (human, UniProt Q5QGZ9 1-265); assay: cell-based or functional assay
T6 sequence: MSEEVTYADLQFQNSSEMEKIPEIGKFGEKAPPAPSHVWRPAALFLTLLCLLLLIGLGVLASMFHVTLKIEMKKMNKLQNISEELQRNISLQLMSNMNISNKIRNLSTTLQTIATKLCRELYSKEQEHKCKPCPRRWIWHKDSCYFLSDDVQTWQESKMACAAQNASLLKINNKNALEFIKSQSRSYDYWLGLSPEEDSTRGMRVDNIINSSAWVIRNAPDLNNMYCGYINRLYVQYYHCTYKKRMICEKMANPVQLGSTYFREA

[7] = target: T6, Human CLEC12A expressed on cells …; assay: cell-based or functional assay; remark: listed apart in the source
[8] = target: T3, Human CD16a V158 (FcγRIIIa V158); assay: SPR; control sample
[9] = target: T7, mFc-hNKG2D (recombinant mFc-tagged human NKG2D dimer) (human, UniProt P26718 73-216); assay: SPR; control sample
T7 construct: extracellular domain; Made in house; not shown: mouse Fc tag
T7 sequence (looked up): T1 sequence (looked up)

[10] = target: T6, Human CLEC12A expressed on cells …; assay: flow cytometry on HL-60 AML cells
[11] = target: T4, Human CLEC12A-His (recombinant, K244 WT); assay: SPR, two-state fit (ka1); control sample
Human CLEC12A-His [12] = target: T8, Human CLEC12A-His (human, UniProt Q5QGZ9 65-265); assay: SPR; taken as the sample after forced oxidation (0.02% H2O2, 24 h)
T8 construct: Recombinant soluble protein made in house; also called hCLEC12A-His; hCLEC12A; not shown: His tag
T8 sequence: T2 sequence

[13] = target: T9, recombinant human CLEC12A-His (human, UniProt Q5QGZ9 65-265); assay: SPR, CLEC12A binding
T9 construct: also called hCLEC12A-His; hCLEC12A
T9 sequence: T2 sequence

[14] = target: T10, recombinant human CD32a H131 (human, UniProt P12318 36-218, limits assumed, biotinylated); assay: SPR 25C, steady state
T10 construct: also called FcγRIIa H131
T10 sequence (looked up): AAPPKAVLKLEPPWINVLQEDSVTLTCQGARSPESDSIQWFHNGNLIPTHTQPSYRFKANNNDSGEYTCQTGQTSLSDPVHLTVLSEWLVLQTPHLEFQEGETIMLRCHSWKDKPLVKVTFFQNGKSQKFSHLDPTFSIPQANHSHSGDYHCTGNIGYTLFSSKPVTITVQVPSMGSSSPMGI

[15] = target: T11, recombinant cynomolgus FcRn (cynomolgus monkey, UniProt Q8SPV9 24-297; Q8SPW0 21-119); assay: SPR 25C, pH 6.0, steady state; pH 6.0; third replicate
T11 construct: also called cFcRn; cyno FcRn
T11 sequence (Q8SPV9 24-297 limits assumed, chain 1 of 2): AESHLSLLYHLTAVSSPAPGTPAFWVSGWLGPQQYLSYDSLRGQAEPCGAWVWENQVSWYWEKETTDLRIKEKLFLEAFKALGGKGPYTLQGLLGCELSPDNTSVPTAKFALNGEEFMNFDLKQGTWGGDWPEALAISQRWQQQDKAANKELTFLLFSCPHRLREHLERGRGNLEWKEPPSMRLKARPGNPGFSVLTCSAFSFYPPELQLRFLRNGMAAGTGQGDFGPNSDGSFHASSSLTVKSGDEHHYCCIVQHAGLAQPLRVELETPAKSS
T11 sequence (Q8SPW0 21-119 limits assumed, chain 2 of 2): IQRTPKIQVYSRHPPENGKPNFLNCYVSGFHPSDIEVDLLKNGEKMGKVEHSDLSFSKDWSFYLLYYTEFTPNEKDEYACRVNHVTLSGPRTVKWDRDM

B1: F3'-1602 TriNKET (bispecific antibody, human IgG1, kappa)
chain: QLQLQESGPGLVKPSETLSLTCTVSGFSLTNYGLHWIRQPPGKCLEWIGVIWSGGKTDYNPSLKSRVTISKDTSKNQFSLKLSSVQAADTAVYYCAKYDYDDSLDYWGQGTLVTVSSGGGGSGGGGSGGGGSGGGGSDIQMTQSPSSLSASVGDRVTITCHASQNINFWLSWYQQKPGKAPKLLIYEASNLHTGVPSRFSGSGSGTRFTLTISSLQPEDIATYYCQQSHSYPLTFGCGTKLEIKGSDKTHTCPPCPAPELLGGPSVFLFPPKPKDTLMISRTPEVTCVVVDVSHEDPEVKFNWYVDGVEVHNAKTKPREEQYNSTYRVVSVLTVLHQDWLNGKEYKCKVSNKALPAPIEKTISKAKGQPREPRVYTLPPCRDELTKNQVSLTCLVKGFYPSDIAVEWESNGQPENNYKTTPPVLVSDGSFTLYSKLTVDKSRWQQGNVFSCSVMHEALHNHYTQKSLSLSPG
heavy: EVQLVESGGGLVKPGGSLRLSCAASGFTFSSYSMNWVRQAPGKGLEWVSSISSSSSYIYYADSVKGRFTISRDNAKNSLYLQMNSLRAEDTAVYYCARGAPIGAAAGWFDPWGQGTLVTVSSASTKGPSVFPLAPSSKSTSGGTAALGCLVKDYFPEPVTVSWNSGALTSGVHTFPAVLQSSGLYSLSSVVTVPSSSLGTQTYICNVNHKPSNTKVDKKVEPKSCDKTHTCPPCPAPELLGGPSVFLFPPKPKDTLMISRTPEVTCVVVDVSHEDPEVKFNWYVDGVEVHNAKTKPREEQYNSTYRVVSVLTVLHQDWLNGKEYKCKVSNKALPAPIEKTISKAKGQPREPQVCTLPPSRDELTENQVSLTCLVKGFYPSDIAVEWESNGQPENNYKTTPPVLDSDGSFFLYSWLTVDKSRWQQGNVFSCSVMHEALHNHYTQKSLSLSPG
light: DIQMTQSPSSVSASVGDRVTITCRASQGISSWLAWYQQKPGKAPKLLIYAASSLQSGVPSRFSGSGSGTDFTLTISSLQPEDFATYYCQQGVSFPRTFGGGTKVEIKRTVAAPSVFIFPPSDEQLKSGTASVVCLLNNFYPREAKVQWKVDNALQSGNSQESVTEQDSKDSTYSLSSTLTLSKADYEKHKVYACEVTHQGLSSPVTKSFNRGEC
notes: Trispecific F3' format: CLEC12A scFv-Fc paired with NKG2D Fab-Fc; Stressed and control samples of the stability studies are the same molecule; also called AB0237
koff (mFc-hNKG2D [1]): 0.13 s⁻¹ | kon (mFc-hNKG2D [1]): 180000 M⁻¹ s⁻¹ | Kd (mFc-hNKG2D [2]): 709 nM and 751 nM and 740 nM | EC50 (nM), KHYG-1-CD16aV cytotoxicity assay, PL-21 cells (Human CLEC12A-His [3]): 0.12 nM

B4: F3'-1602 TriNKET (other)
chain: B1 chain
heavy: B1 heavy
light: B1 light
notes: CLEC12A scFv-Fc, NKG2D A49MI Fab-Fc, human IgG1 Fc; also called AB0237
Kd [13]: 0.6 nM | Kd [14]: 900 nM and 800 nM | Kd [15]: 1400 nM

The remaining lines, values ahead:

Kd [4]: 383 nM | koff [4]: 0.0289 s⁻¹ | kon [4]: 75400 M⁻¹ s⁻¹ | Kd [5]: 1 nM | Kd (Human CD64 (FcγRI)): 6.4 nM and 4.7 nM and 4.1 nM and 5.2 nM | koff (Human CD64 (FcγRI)): 0.00018 s⁻¹ and 0.00022 s⁻¹ and 0.00019 s⁻¹ and 0.00024 s⁻¹ | kon (Human CD64 (FcγRI)): 44000 M⁻¹ s⁻¹ and 46000 M⁻¹ s⁻¹ | EC50, rested NK cell lysis of PL21 cells (mean of six donors) [6]: 0.25 nM | EC50, NK cell induction of IFNγ and CD107a in co-culture with PL21 cells (mean of three donors) [7]: 0.08 nM | Kd [8]: 322 nM | koff [8]: 0.0278 s⁻¹ | kon [8]: 86400 M⁻¹ s⁻¹ | Kd [9]: 797 nM | koff [9]: 0.135 s⁻¹ | kon [9]: 169000 M⁻¹ s⁻¹ | EC50 [10]: 0.74 nM | kon [11]: 1.04e+07 M⁻¹ s⁻¹
B2: AB0089 TriNKET (bispecific antibody, human IgG1, kappa)
chain: B1 chain with S53V, K56A, K71V, Y98G, D101G, S103T, R207D, I220F
heavy: B1 heavy
light: B1 light
notes: F3' format heterodimer of three chains; human IgG1 Fc with EW-RVT and Y349C/S354C mutations; also called AB0089 Lot AB0089-002; CLEC12A TriNKET AB0089

Kd (Human CLEC12A-His [12]): 1.71 nM | koff (Human CLEC12A-His [12]): 0.00132 s⁻¹ | kon (Human CLEC12A-His [12]): 775000 M⁻¹ s⁻¹
B3: AB0192 TriNKET (other)
chain: EVQLVESGGGVVQPGGSLRLSCAASGFTFNAFGMHWVRQAPGKCLEWVAFISSGSTSIYYANTVKGRFTISRDNSKNTLYLQMNSLRAEDTAVYYCARDGYPTGGAMDYWGQGTSVTVSSGGGGSGGGGSGGGGSGGGGSDIQMTQSPSSLSASVGDRVTITCKASQDIYNYLSWFQQKPGKAPKPLIYRANILVSGVPSRFSGSGSGQDYTFTISSLQPEDIATYYCLQFDAFPFTFGCGTKLEIKGSDKTHTCPPCPAPELLGGPSVFLFPPKPKDTLMISRTPEVTCVVVDVSHEDPEVKFNWYVDGVEVHNAKTKPREEQYNSTYRVVSVLTVLHQDWLNGKEYKCKVSNKALPAPIEKTISKAKGQPREPRVYTLPPCRDELTKNQVSLTCLVKGFYPSDIAVEWESNGQPENNYKTTPPVLVSDGSFTLYSKLTVDKSRWQQGNVFSCSVMHEALHNHYTQKSLSLSPG
heavy: B1 heavy
light: B1 light
notes: the condition stands under assay; also called AB0192 Lot AB0192-005
